Reference: patent publication US20230212304A1
pKd: −log10 of the molar value.

Experiments:
[1] = target: cynomolgus monkey CTLA4-his protein (Acro biosystems, Cat#CT4-C5227) (cynomolgus monkey) (UniProt G7PL88); assay: SPR, Biacore T200; benchmark on Protein G chip, CTLA4-his as analyte
[2] = target: cynomolgus monkey CTLA4-his protein (Acro biosystems, Cat#CT4-C5227) (cynomolgus monkey) (UniProt G7PL88); assay: SPR, Biacore; antibody captured on anti-human IgG CM5 chip, CTLA4-his as analyte

cynomolgus monkey CTLA4-his protein (Acro biosystems, Cat#CT4-C5227) (cynomolgus monkey), sequence (G7PL88 entry or part of it): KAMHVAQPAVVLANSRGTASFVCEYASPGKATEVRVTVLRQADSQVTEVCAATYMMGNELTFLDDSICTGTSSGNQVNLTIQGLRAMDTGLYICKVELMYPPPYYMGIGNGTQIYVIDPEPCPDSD

Yervoy® (Bristol-Myers Squibb Co, Cat# NDC: 0003-2327-11) (antibody)
pKd [1]: 8.53
pKd [2]: 8.66
